Results taken from US20090088402A1 (SUNGKYUNKWAN UNIVERSITY FOUNDATION FOR CORPORATE …, published 2009).

Biological target: T1, full length human p53 fused in frame with the B42D activation domain (pJG4-5) (human, UniProt P04637 1-393)
T1 construct: mature; Yeast two hybrid prey
Test: yeast two hybrid, X-gal colony colour
Description: To determine whether protein-protein interactions are involved, and which part of Msx1 are involved if any, in the stabilization of p53 leading to apoptosis of cells by Msx1, yeast two hybrid assays were used as previously described (Gyuris et al., Cell 75: 791-803, 1993; Part et al., ibid).
Briefly, to this end, four Msx1 constructs (FIG. 3A top) were made as described in Example 1. DNA fragments encoding full length human HPV-E6 and p53 proteins were isolated by PCR from the cDNA library derived from HeLa cells (Clontech) and cloned into pJG4-5 at unique EcoRI and XhoI sites for in-frame fusion of each cDNA with B42D activation domain. The truncated constructs of Msx1 as shown in FIG. 3A were obtained by PCR using specific set of primers designed for each deletion product and pCB6+/Msx1 as a template. Each amplified Msx1 fragment was then inserted into a pGlida vector (Clontech) using BamHI and XhoI sites to express it as a fusion protein with LexA. Each pGlida and pJG4-5 fusion construct prepared was then introduced into the testing yeast strain EGY48. […] The binding activity between HPV-E6 and Msx1 was also determined quantitatively by the relative expression level of β-galactosidase as described (Rho, S B et al., FEBS Lett 557: 57-63, 2004; Rho, S B et al., PNAS USA 93:10128-33,1996).

binding result: no binding
B1: Msx1 construct lacking homeodomain (1-165) expressed as a fusion protein with LexA (other)
chain: MTSLPLGVKVEDSAFGKPAGGGAGQAPSAAAATAAAMGADEEGAKPKVSPSLLPFSVEALMADHRKPGAKESALAPSEGVQAAGGSAQPLGVPPGSLGAPDAPSSPRPLGHFSVGGLLKLPEDALVKAESPEKPERTPWMQSPRFSPPPARRLSPPACTLRKHKT
notes: Yeast two hybrid bait; not shown: LexA as encoded by the pGlida vector (Clontech)
